Data taken from patent publication US20190263934A1.

What was measured:
[1] = target: biotinylated human FcRn (hFcRn; p51 subunit residues 24-297 with C-terminal Avi-tag, β2-m residues 21-119) (human) (UniProt P55899); assay: Biacore SPR, pH 6.0, apparent affinity
[2] = target: biotinylated human FcRn (hFcRn; p51 subunit residues 24-297 with C-terminal Avi-tag, β2-m residues 21-119) (human) (UniProt P55899); assay: Biacore SPR; second ratio column (inverse of c7)
[3] = target: biotinylated human FcRn (hFcRn; p51 subunit residues 24-297 with C-terminal Avi-tag, β2-m residues 21-119) (human) (UniProt P55899); assay: Biacore SPR, pH 7.4, steady state, 1000 nM antibody
[4] = target: biotinylated human FcRn (hFcRn; p51 subunit residues 24-297 with C-terminal Avi-tag, β2-m residues 21-119) (human) (UniProt P55899); assay: Biacore SPR; pH 6.0 affinity (M^-1) over pH 7.4 steady state RU
[5] = target: biotinylated hFcRn (human) (UniProt P55899); assay: SPR Biacore, pH 6.0
rFcRn (rat) [6] = target: rFcRn (rat) (UniProt P13599); assay: SPR Biacore, pH 6.0
[7] = target: biotinylated hFcRn (human) (UniProt P55899); assay: SPR Biacore, pH 7.4
rFcRn (rat) [8] = target: rFcRn (rat) (UniProt P13599); assay: SPR Biacore, pH 7.4

rFcRn (rat), sequence (P13599 23-298 limits assumed, form in doubt, chain 1 of 2): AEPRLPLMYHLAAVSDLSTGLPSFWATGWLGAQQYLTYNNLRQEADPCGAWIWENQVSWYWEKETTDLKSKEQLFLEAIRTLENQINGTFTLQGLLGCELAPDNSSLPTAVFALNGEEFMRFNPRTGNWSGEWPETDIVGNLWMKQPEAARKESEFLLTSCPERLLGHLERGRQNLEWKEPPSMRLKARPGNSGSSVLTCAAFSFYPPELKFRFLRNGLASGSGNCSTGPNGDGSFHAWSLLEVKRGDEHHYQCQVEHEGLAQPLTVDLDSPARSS
rFcRn (rat), sequence (P07151 21-119 limits assumed, form in doubt, chain 2 of 2, further chain): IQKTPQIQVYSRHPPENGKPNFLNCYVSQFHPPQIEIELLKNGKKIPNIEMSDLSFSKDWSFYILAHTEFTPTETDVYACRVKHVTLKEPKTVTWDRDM

| Substance | Ka [1] [M⁻¹] | Ratio (pH 6.0/pH 7.4) [2] | Steady State Binding, pH 7.4 (RU) [3] [RU] | Ratio (pH 6.0/pH 7.4) [4] | Ratio (pH 7.4/pH 6.0) [2] | also measured |
| --- | --- | --- | --- | --- | --- | --- |
| mAb1 LS variant (M428L/N434S) (antibody) | 3.68e+06 | 4.97e-06 | 18.3 | 201000 |  |  |
| mAb1 M252Y/N434F (antibody) |  |  |  |  |  | Kd [5]: 18 nM; koff [5]: 0.023 s⁻¹; kon [5]: 1.27e+06 M⁻¹ s⁻¹; Kd (rFcRn (rat) [6]): 0.29 nM; koff (rFcRn (rat) [6]): 0.00012 s⁻¹; kon (rFcRn (rat) [6]): 403000 M⁻¹ s⁻¹; Steady State RU [7]: 43.8 RU; Steady State RU (rFcRn (rat) [8]): 79.3 RU |
| mAb1 M252Y/N434Y (antibody) |  |  |  |  |  | Kd [5]: 8.32 nM; koff [5]: 0.0171 s⁻¹; kon [5]: 2.06e+06 M⁻¹ s⁻¹; Kd (rFcRn (rat) [6]): 0.26 nM; koff (rFcRn (rat) [6]): 0.00014 s⁻¹; kon (rFcRn (rat) [6]): 540000 M⁻¹ s⁻¹; Steady State RU [7]: 54.1 RU; Steady State RU (rFcRn (rat) [8]): 67.9 RU |
| mAb1 MDQF variant (T256D/T307Q/N434F) (antibody) | 6.62e+06 |  | 55.3 | 120000 | 8.35e-06 |  |
| mAb1 MDTY variant (T256D/N434Y) (antibody) | 6.41e+07 | 5.79e-07 | 37.1 | 1.73e+06 |  |  |
| mAb1 MDWF variant (T256D/T307W/N434F) (antibody) | 2.81e+07 |  | 47.1 | 597000 | 1.68e-06 |  |
| mAb1 MDWN variant (T256D/T307W) (antibody) | 5.92e+06 | 2.06e-06 | 12.2 | 485000 |  |  |
| mAb1 MEQF variant (T256E/T307Q/N434F) (antibody) | 142000 |  |  |  |  |  |
| mAb1 MEQN variant (T256E/T307Q) (antibody) | 2e+06 |  |  |  |  |  |
| mAb1 MEQY variant (T256E/T307Q/N434Y) (antibody) | 2.38e+07 |  | 38.6 | 617000 | 1.62e-06 |  |
| mAb1 METY variant (T256E/N434Y) (antibody) | 1.6e+07 | 1.68e-06 | 26.8 | 597000 |  |  |
| mAb1 MEWF variant (T256E/T307W/N434F) (antibody) | 5.62e+07 |  | 41.9 | 1.34e+06 | 7.46e-07 |  |
| mAb1 MEWY variant (T256E/T307W/N434Y) (antibody) | 7.04e+07 |  | 46.6 | 1.51e+06 | 6.62e-07 |  |
| mAb1 MTQF variant (T307Q/N434F) (antibody) | 2.33e+07 | 1.47e-06 | 34.2 | 681000 |  |  |
| mAb1 T256E/T307Q (antibody) |  |  |  |  |  | Kd [5]: 499 nM; Kd (rFcRn (rat) [6]): 10.7 nM; Steady State RU (rFcRn (rat) [8]): 23.4 RU |
| mAb1 T256E/T307W (antibody) |  |  |  |  |  | Kd [5]: 323 nM; Kd (rFcRn (rat) [6]): 10.6 nM; Steady State RU (rFcRn (rat) [8]): 33 RU |
| mAb1 YDQN variant (M252Y/T256D/T307Q) (antibody) | 8.7e+06 |  | 19.8 | 439000 | 2.28e-06 |  |
| mAb1 YDTF variant (M252Y/T256D/N434F) (antibody) | 2.96e+07 |  | 57.7 | 513000 | 1.95e-06 |  |
| mAb1 YDTN variant (M252Y/T256D) (antibody) | 1.07e+07 | 9.07e-07 | 9.7 | 1.1e+06 |  |  |
| mAb1 YDWN variant (M252Y/T256D/T307W) (antibody) | 1.01e+07 |  | 25.9 | 390000 | 2.56e-06 |  |
| mAb1 YEQN variant (M252Y/T256E/T307Q) (antibody) | 4.59e+06 |  | 15.2 | 302000 | 3.31e-06 |  |
| mAb1 YTQN variant (M252Y/T307Q) (antibody) | 3.6e+06 |  | 10.6 | 340000 |  | Ratio (pH 7.4 steady state RU / pH 6.0 affinity) [2]: 2.94e-06 |
| mAb1 YTQY variant (M252Y/T307Q/N434Y) (antibody) | 6.33e+07 |  | 71.5 | 885000 | 1.13e-06 |  |
| mAb1 YTWF variant (M252Y/T307W/N434F) (antibody) | 6.54e+07 |  | 62.6 | 1.04e+06 |  | Ratio (pH 7.4 steady-state RU / pH 6.0 affinity) [2]: 9.57e-07 |

The next lines start with results.

| Ka [1] [M⁻¹] | Ratio (pH 6.0/pH 7.4) [2] | Steady State Binding, pH 7.4 (RU) [3] [RU] | Ratio (pH 6.0/pH 7.4) [4] | Ratio (pH 7.4/pH 6.0) [2] | Substance | also measured |
| --- | --- | --- | --- | --- | --- | --- |
| 562000 | 2.47e-05 | 13.9 | 40400 |  | mAb1 AAA variant (T307A/E380A/N434A) (antibody) |  |
| 4.31e+06 | 2.48e-06 | 10.7 | 403000 |  | mAb1 MDQN variant (T256D/T307Q) (antibody) |  |
| 3.69e+07 |  | 49.4 | 747000 | 1.34e-06 | mAb1 MDQY variant (T256D/T307Q/N434Y) (antibody) |  |
| 3.34e+07 | 8.74e-07 | 29.2 | 1.14e+06 |  | mAb1 MDTF variant (T256D/N434F) (antibody) |  |
| 1.28e+07 | 1.82e-06 | 23.3 | 549000 |  | mAb1 METF variant (T256E/N434F) (antibody) |  |
| 3.1e+06 |  |  |  |  | mAb1 MEWN variant (T256E/T307W) (antibody) |  |
| 3.09e+07 | 1.24e-06 | 38.4 | 805000 |  | mAb1 MTQY variant (T307Q/N434Y) (antibody) |  |
| 2.62e+07 | 1.16e-06 | 30.5 | 859000 |  | mAb1 MTWF variant (T307W/N434F) (antibody) |  |
| 4.65e+07 | 8e-07 | 37.2 | 1.25e+06 |  | mAb1 MTWY variant (T307W/N434Y) (antibody) |  |
| 7.81e+06 |  | 9.8 | 797000 | 1.25e-06 | mAb1 YETN variant (M252Y/T256E) (antibody) |  |
| 3.34e+07 |  | 22.6 | 1.48e+06 | 6.77e-07 | mAb1 YETY variant (M252Y/T256E/N434Y) (antibody) |  |
| 6.41e+06 |  | 69.6 | 92100 | 1.09e-05 | mAb1 YEWN variant (M252Y/T256E/T307W) (antibody) |  |
| 2.92e+06 | 4.52e-06 | 13.2 | 221000 |  | mAb1 YTE variant (M252Y/S254T/T256E) (antibody) |  |
| 5.65e+07 |  | 59.9 | 943000 | 1.06e-06 | mAb1 YTQF variant (M252Y/T307Q/N434F) (antibody) |  |
| 5.56e+07 |  | 43.8 | 1.27e+06 | 7.88e-07 | mAb1 YTTF variant (M252Y/N434F) (antibody) |  |
| 8.47e+06 |  | 15.9 | 533000 | 1.88e-06 | mAb1 YTWN variant (M252Y/T307W) (antibody) |  |
